This test deals with Pmel-TCR (mouse). Put plainly: flow cytometry, APC-tetramer staining of FACS-sorted 293TREx-CD3-Pmel-TCR cells.
Chain of Pmel-TCR (mouse) (TCR alpha, as listed by the source, form in doubt, chain 1 of 2): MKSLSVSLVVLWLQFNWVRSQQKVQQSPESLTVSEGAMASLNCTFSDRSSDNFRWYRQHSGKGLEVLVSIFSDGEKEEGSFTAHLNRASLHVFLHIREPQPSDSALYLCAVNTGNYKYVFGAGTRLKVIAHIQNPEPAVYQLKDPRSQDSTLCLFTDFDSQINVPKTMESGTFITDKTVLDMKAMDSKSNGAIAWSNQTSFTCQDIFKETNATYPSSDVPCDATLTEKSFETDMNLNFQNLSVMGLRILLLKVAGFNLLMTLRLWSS
Chain of Pmel-TCR (mouse) (TCR beta, as listed by the source, form in doubt, chain 2 of 2): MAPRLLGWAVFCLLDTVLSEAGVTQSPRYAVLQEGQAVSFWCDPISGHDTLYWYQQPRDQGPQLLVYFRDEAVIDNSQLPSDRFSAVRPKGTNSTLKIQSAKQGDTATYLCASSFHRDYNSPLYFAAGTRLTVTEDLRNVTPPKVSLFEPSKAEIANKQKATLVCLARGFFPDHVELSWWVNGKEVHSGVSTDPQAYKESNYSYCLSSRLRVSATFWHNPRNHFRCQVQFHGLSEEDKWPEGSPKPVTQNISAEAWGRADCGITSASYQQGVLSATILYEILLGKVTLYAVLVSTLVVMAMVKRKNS

Chain of APC-streptavidin tetramer of H-2D^b mouse MHC class I molecules loaded with the human gp100 peptide … (P01899 25-362): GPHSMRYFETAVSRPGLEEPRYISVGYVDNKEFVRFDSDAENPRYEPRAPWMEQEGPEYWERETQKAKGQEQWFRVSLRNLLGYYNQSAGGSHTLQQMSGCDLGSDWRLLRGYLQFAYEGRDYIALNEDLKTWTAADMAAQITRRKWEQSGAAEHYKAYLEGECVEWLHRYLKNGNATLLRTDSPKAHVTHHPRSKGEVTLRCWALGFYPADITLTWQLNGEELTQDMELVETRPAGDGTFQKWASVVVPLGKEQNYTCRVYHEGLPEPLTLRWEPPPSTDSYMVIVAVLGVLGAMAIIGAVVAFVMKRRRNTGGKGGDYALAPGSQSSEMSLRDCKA

For “APC-streptavidin tetramer of H-2D^b mouse MHC class I molecules loaded with the human gp100 peptide … (from UniProt P01899 25-362) (peptide-MHC)”, the percent of cells stained with the tetramers was 81.5%.
